{"source": "patent US4285932A", "about": "“Enzyme derivatives for use in the treatment of venous thrombosis” (Beecham Group Limited, priority 1978, dated 1981)", "molecules": {"B1": {"name": "human plasmin: free proteolytic enzyme, in vivo fibrinolytic enzyme (protein, UniProt P00747 20-580; P00747 581-810, looked up)", "Plasmin heavy chain A": "EPLDDYVNTQGASLFSVTKKQLGAGSIEECAAKCEEDEEFTCRAFQYHSKEQQCVIMAENRKSSIIIRMRDVVLFEKKVYLSECKTGNGKNYRGTMSKTKNGITCQKWSSTSPHRPRFSPATHPSEGLEENYCRNPDNDPQGPWCYTTDPEKRYDYCDILECEEECMHCSGENYDGKISKTMSGLECQAWDSQSPHAHGYIPSKFPNKNLKKNYCRNPDRELRPWCFTTDPNKRWELCDIPRCTTPPPSSGPTYQCLKGTGENYRGNVAVTVSGHTCQHWSAQTPHTHNRTPENFPCKNLDENYCRNPDGKRAPWCHTTNSQVRWEYCKIPSCDSSPVSTEQLAPTAPPELTPVVQDCYHGDGQSYRGTSSTTTTGKKCQSWSSMTPHRHQKTPENYPNAGLTMNYCRNPDADKGPWCFTTDPSVRWEYCNLKKCSGTEASVVAPPPVVLLPDVETPSEEDCMFGNGKGYRGKRATTVTGTPCQDWAAQEPHRHSIFTPETNPRAGLEKNYCRNPDGDVGGPWCYTTNPRKLYDYCDVPQCAAPSFDCGKPQVEPKKCPGR", "Plasmin light chain B": "VVGGCVAHPHSWPWQVSLRTRFGMHFCGGTLISPEWVLTAAHCLEKSPRPSSYKVILGAHQEVNLEPHVQEIEVSRLFLEPTRKDIALLKLSSPAVITDKVIPACLPSPNYVVADRTECFITGWGETQGTFGAGLLKEAQLPVIENKVCNRYEFLNGRVQSTELCAGHLAGGTDSCQGDSGGPLVCFEKDKYILQGVTSWGLGCARPNKPGVYVRVSRFVTWIEGVMRNN", "modifications": "Plasmin"}, "B2": {"name": "Trans-Cinnamoyl Porcine Plasmin (protein, UniProt P06867 20-579; P06867 580-809, looked up)", "Plasmin heavy chain A": "DSLDDYVNTQGAFLFSLSRKQVAARSVEECAAKCEAETNFICRAFQYHSKDQQCVVMAENSKTSPIARMRDVVLFEKRIYLSECKTGNGKNYRGTTSKTKSGVICQKWSVSSPHIPKYSPEKFPLAGLEENYCRNPDNDEKGPWCYTTDPETRFDYCDIPECEDECMHCSGEHYEGKISKTMSGIECQSWGSQSPHAHGYLPSKFPNKNLKMNYCRNPDGEPRPWCFTTDPNKRWEFCDIPRCTTPPPTSGPTYQCLKGRGENYRGTVSVTASGHTCQRWSAQSPHKHNRTPENFPCKNLEENYCRNPDGETAPWCYTTDSEVRWDYCKIPSCGSSTTSTEYLDAPVPPEQTPVAQDCYRGNGESYRGTSSTTITGRKCQSWVSMTPHRHEKTPGNFPNAGLTMNYCRNPDADKSPWCYTTDPRVRWEYCNLKKCSETEQQVTNFPAIAQVPSVEDLSEDCMFGNGKRYRGKRATTVAGVPCQEWAAQEPHRHSIFTPETNPRAGLEKNYCRNPDGDDNGPWCYTTNPQKLFDYCDVPQCVTSSFDCGKPKVEPKKCPAR", "Plasmin light chain B": "VVGGCVSIPHSWPWQISLRHRYGGHFCGGTLISPEWVLTAKHCLEKSSSPSSYKVILGAHEEYHLGEGVQEIDVSKLFKEPSEADIALLKLSSPAIITDKVIPACLPTPNYVVADRTACYITGWGETKGTYGAGLLKEARLPVIENKVCNRYEYLGGKVSPNELCAGHLAGGIDSCQGDSGGPLVCFEKDKYILQGVTSWGLGCALPNKPGVYVRVSRFVTWIEEIMRRN", "modifications": "plasmin trans-cinnamoyl acylated active site", "notes": "porcine plasmin acylated with p-amidinophenyl transcinnamate"}, "B3": {"name": "p-Anisoyl: porcine plasmin, active site serine blocked by p-anisoyl; porcine column of Table 1 (protein, UniProt P06867 20-579; P06867 580-809, looked up)", "Plasmin heavy chain A": "B2 Plasmin heavy chain A", "Plasmin light chain B": "B2 Plasmin light chain B", "modifications": "plasmin p-anisoyl acylated active site"}}, "key": {"[1]": {"tested_on": "streptokinase-human plasminogen activator complex", "assay": "Deacylation of acylated streptokinase-human plasminogen activator complex to free enzyme", "assay_type": "biochemical", "details": "acyl-activator complex solution; 37° C.", "description": "(§1) The pseudo-first order rate constant is determined by hydrolysing the enzyme derivative under physiological conditions i.e. in isotonic aqueous media at pH 7.4 and at 37° C. At regular intervals aliquots are withdrawn and incubated with a chromogenic or fluorogenic protease substrate such as S-2251 (H-D-Val-Leu-Lys-p-nitroanilide 2HCl) and the rate of conversion of the substrate measured.\n(§2) The hydrolysis is followed until such time as the rate of conversion of substrate reaches a maximum. The rate constant k is then calculated by plotting: […]\n(§3) loge (1-^At /Amax) against t\n(§4) where Amax the maximum rate at which an aliquot converts substrate and At is the rate at which an aliquot converts substrate at time t."}, "[2]": {"tested_on": "streptokinase-human plasminogen activator complex", "assay": "Residual enzyme activity of acylated streptokinase-human plasminogen activator complex", "assay_type": "biochemical", "details": "freeze-dried powder", "description": "(§5) The time for which the reaction is allowed to proceed depends upon the blocking reagent employed, the temperature at which the reaction is carried out and the enzyme selected for blocking. The optimum time period for any particular circumstances may be selected by following the decrease in enzymic activity by incubating aliquots with a chromogenic or fluorogenic substrate."}, "[3]": {"tested_on": "radio-labelled clot in the inferior vena cava", "assay": "In vivo fibrinolytic enzyme test: radio-labelled clot in the inferior vena cava of the rabbit", "set-up": "species or system New Zealand white rabbit", "details": "systemic infusion, blood radioactivity at least twice background within six hours without death", "from_the_text": "The agent under test is introduced into the bloodstream at a point where it must pass through the heart to ensure that the agent will be thoroughly mixed with venous blood. Non-specific lytic enzymes attack blood proteins and cause death before any lysis of the clot is observed. Enzymes which have a degree of specificity for fibrin lyse the clot at a dose lower than the lethal dose.\nA New Zealand white rabbit (2.5-3.5 kg) is anaesthetised and three cannulas are inserted into the anterior facial vein (referred to as cannula 1 in this description), the left carotid artery (referred to as cannula 2) and the left external iliac vein (referred to as cannula 3). […] The quantity of 50 μl is determined arbitrarily, and represents an amount between the minimum quantity which can be measured accurately and the maximum quantity which can be injected without excessive disturbance of physiological conditions within the isolated vein portion. […] The first swab is transferred to a counting vial, and the level of γ -radiation is measured. […]\nConstriction is required in order to prevent dislodgement of the clot. […] A second blood sample (P10) is withdrawn into citrate buffer as above and counted as previously described ten minutes after Po This count is made to check that no additional radio-activity has been washed into the bloodstream, thereby giving an indication of the stability of the clot. […]"}, "Porcine Plasmin [4]": {"tested_on": "Porcine Plasmin", "assay": "Residual enzyme activity of blocked porcine plasmin versus original enzyme", "assay_type": "biochemical", "details": "after acylation and dialysis", "description": "as §5"}, "Porcine Plasmin [5]": {"tested_on": "Porcine Plasmin", "assay": "Deacylation (hydrolysis) of active-site blocked porcine plasmin, pseudo-first order rate constant followed by regain of activity on chromogenic substrate", "assay_type": "biochemical", "details": "for Deacylation rate, Porcine Plasmin K sec^-1 × 10^4: active site serine substituted porcine plasmin, pH 7.4, 37° C.", "description": "as §1, §2, §3, §4"}, "Human Plasmin": {"tested_on": "Human Plasmin", "assay": "Deacylation (hydrolysis) of active-site blocked human plasmin, pseudo-first order rate constant followed by regain of activity on chromogenic substrate S-2251", "assay_type": "biochemical", "details": "active site serine substituted human plasmin; pH 7.4, 37° C.", "description": "as §1, §2, §3, §4"}}}
{"molecule": "3-Methyl p-Anisoyl Streptokinase-human Plasminogen Activator Complex [Example 23]", "values": [{"measurement": "pseudo-first order (deacylation) rate constant of regeneration to free enzyme", "setting": "[1]", "result": 0.0001, "unit": "s⁻¹"}]}
{"molecule": "p-Anisoyl Streptokinase-Human Plasminogen Activator Complex [Example 22]", "values": [{"measurement": "pseudo-first order (deacylation) rate constant of regeneration to free enzyme", "setting": "[1]", "result": 0.00027, "unit": "s⁻¹"}]}
{"molecule": "p-Anisoyl Streptokinase-Human Plasminogen Activator Complex [Example 26]", "values": [{"measurement": "remaining share of the original enzyme activity", "setting": "[2]", "result": "less than 5%"}]}
{"molecule": "B1", "values": [{"measurement": "dose giving a positive result in the in vivo fibrinolytic test", "setting": "[3]", "result": "1×10^-7 to 5×10^-6 mol of active catalytic sites per kg of test animal"}]}
{"molecule": "B2", "values": [{"measurement": "activity of the derivative relative to the original enzyme", "setting": "Porcine Plasmin [4]", "result": "less than 0.5%"}, {"measurement": "Deacylation rate, Porcine Plasmin K sec^-1 × 10^4", "setting": "Porcine Plasmin [5]", "result": 4.20, "unit": "sec^-1 × 10^4"}, {"measurement": "time for reactivation", "setting": "Porcine Plasmin [5]; deacylation conditions", "result": "two"}]}
{"molecule": "B3", "values": [{"measurement": "Deacylation rate, Human Plasmin K sec^-1 × 10^4", "setting": "Human Plasmin", "result": 1.10, "unit": "sec^-1 × 10^4"}, {"measurement": "Deacylation rate, Porcine Plasmin K sec^-1 × 10^4", "setting": "Porcine Plasmin [5]", "result": 0.33, "unit": "sec^-1 × 10^4"}]}
